According to patent publication US20170240619A1:

Legend:
[1] = molecular target: HER2 on SK-BR-3 human breast cancer cells (human) (UniProt P04626); experiment: flow cytometry on SK-BR-3 cells, human IgG1, anti-human IgG-FITC detection
[2] = molecular target: Biotinylated HER2 extracellular domain (human) (UniProt P04626); experiment: SPR (BIAcore), biotinylated HER2 ECD on streptavidin chip, scFv injected, 1:1 Langmuir fit

| Substance | EC50 [1] [µg/mL] | Kd [2] [nM] | koff [2] [s⁻¹] | kon [2] [M⁻¹ s⁻¹] |
| --- | --- | --- | --- | --- |
| 4D5 as human IgG1, VL 52D (WT/52D) (antibody) | 0.925 | – | – | – |
| 4D5-b (4D5 scFv, VL 52D) | – | 7.6 | 0.00091 | 120000 |
